Test results published in patent publication EP4696312A1 (IMBIORAY (HANGZHOU) BIOMEDICINE CO., LTD., dated 2024).

Experiments:
[1] = target: T1, Rhesus macaque Trop2 (rhesus macaque, UniProt A0A5F8AGB8 27-274); test: BLI (OctetR8), Trop2 on His-K probes, antibody in solution
T1 construct: Recombinant protein loaded onto His-K biosensors
T1 sequence: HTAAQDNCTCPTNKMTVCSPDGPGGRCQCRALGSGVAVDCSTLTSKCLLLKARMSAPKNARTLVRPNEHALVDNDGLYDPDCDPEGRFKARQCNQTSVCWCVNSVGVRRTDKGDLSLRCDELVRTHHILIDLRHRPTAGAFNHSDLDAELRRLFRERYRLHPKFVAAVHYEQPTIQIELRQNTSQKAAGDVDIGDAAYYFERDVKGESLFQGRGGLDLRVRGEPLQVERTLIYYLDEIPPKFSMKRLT

[2] = target: T2, Human Trop2 (human, UniProt P09758 27-274); test: as above
T2 construct: Recombinant protein loaded onto His-K biosensors; also called TACSTD2; EGP-1
T2 sequence (looked up): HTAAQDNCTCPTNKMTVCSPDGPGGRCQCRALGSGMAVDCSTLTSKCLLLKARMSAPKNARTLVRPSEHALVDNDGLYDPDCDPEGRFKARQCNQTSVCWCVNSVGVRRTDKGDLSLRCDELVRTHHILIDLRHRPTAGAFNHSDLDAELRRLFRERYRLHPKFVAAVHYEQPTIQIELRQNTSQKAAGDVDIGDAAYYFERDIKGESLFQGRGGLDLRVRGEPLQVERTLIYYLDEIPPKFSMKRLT

B1: L2-conjugated antibody (anti-Trop2 monoclonal antibody conjugated to L2 linker) (antibody, human IgG1, V domains shown)
VH: EVQLVESGGGLVQPGGSLRLSCAASGFTFNNYAMSWVRQAPGKGLEWVSTISSDGTYTYYADSVKGRFTISRDNSKNTLYLQMNSLRAEDTAVYYCARHPPSYYYAFDYWGQGTTLTVSS
VL: EIVLTQSPGTLSLSPGERATLSCRASESVDSYGNSFIHWYQQKPGQAPRLLIYLASNLESGIPDRFSGSGSGTDFTLTISRLEPEDFAVYYCQQNNEDLWTFGGGTKLEIKA
modifications: L2 linker coupled to lysine residue(s); 1-4 (preferably 1-2) L2 linkers per antibody; chain and positions not stated; L2 linker (dibenzoazacyclooctyne-glutaryl-amino tetraethylene glycol-pentafluorophenyl acetylpiperidinate) coupled to lysine residue(s); 1-4 (preferably 1-2) L2 linkers per antibody; chain and positions not stated
notes: Each chain is the variable region followed by the constant region; also called IB12 (name of the expression plasmid)
koff [1]: < 1e-07 s⁻¹ | kon [1]: 569000 M⁻¹ s⁻¹ | Kd [2]: 0.0226 µM | koff [2]: 0.0127 s⁻¹ | kon [2]: 564000 M⁻¹ s⁻¹
